In patent publication US9192657B2, “Activated protein C variants with normal cytoprotective activity but reduced anticoagulant activity” (The Scripps Research Institute, dated 2015):
Numbering of substitutions follows the chain as printed. In names and notes the source's numbering stands. Blank lines part the entries; values can stand above or below the binder they belong to.

Tests used:
[1] = target: T1, protease activated receptor-1 (PAR-1) (Homo sapiens (Human), UniProt P25116); assay: cell-based or functional assay
T1 sequence: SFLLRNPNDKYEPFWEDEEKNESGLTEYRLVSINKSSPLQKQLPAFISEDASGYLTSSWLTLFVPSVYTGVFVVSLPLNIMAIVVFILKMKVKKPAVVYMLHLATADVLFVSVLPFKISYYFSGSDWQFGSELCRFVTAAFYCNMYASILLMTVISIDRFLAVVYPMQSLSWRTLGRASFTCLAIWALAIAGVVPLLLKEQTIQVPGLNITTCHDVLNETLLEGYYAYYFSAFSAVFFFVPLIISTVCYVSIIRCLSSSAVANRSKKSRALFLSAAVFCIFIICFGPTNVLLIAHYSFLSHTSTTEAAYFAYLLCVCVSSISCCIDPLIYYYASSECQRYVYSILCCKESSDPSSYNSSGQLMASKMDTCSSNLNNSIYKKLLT

[2] = target: T2, endothelial protein C receptor (EPCR) on cells (Homo sapiens (Human), UniProt Q9UNN8); assay: cell-based or functional assay
T2 sequence: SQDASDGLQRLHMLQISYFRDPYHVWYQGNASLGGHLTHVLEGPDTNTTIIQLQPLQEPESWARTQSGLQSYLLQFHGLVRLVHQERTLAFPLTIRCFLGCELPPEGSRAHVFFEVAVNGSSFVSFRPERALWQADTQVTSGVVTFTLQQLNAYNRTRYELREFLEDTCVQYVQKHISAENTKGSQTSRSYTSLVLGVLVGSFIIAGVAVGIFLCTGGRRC

[3] = target: T3, endothelial protein C receptor (EPCR), as in the binding assays (Homo sapiens (Human), UniProt Q9UNN8); assay: apparent Kd; binding to immobilized soluble EPCR and to K293 cells transfected with wtEPCR (format of the value not told)
T3 sequence: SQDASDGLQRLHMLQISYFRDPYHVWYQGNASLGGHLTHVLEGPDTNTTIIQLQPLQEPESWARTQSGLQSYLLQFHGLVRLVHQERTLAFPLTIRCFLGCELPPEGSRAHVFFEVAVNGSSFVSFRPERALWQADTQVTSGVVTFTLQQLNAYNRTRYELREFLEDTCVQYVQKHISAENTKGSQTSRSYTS

[4] = target: T1, protease activated receptor-1 (PAR-1); assay: cell-based or functional assay; remark: listed apart in the source
[5] = target: T2, endothelial protein C receptor (EPCR) …; assay: cell-based or functional assay; remark: listed apart in the source
[6] = target: factor Va (human, UniProt P12259); assay: cell-based or functional assay
[7] = target: T1, protease activated receptor-1 (PAR-1); assay: cell-based or functional assay; remark: listed apart in the source
[8] = target: T2, endothelial protein C receptor (EPCR) …; assay: cell-based or functional assay; remark: listed apart in the source

half-maximum inhibition of staurosporine-induced endothelial cell apoptosis (Example 5) [1]: 0.7 nM | half-maximum inhibition of staurosporine-induced endothelial cell apoptosis (Example 5) [2]: 0.7 nM | Kd [3]: 29 nM
B1: RR229/230AA plus KKK191-193AAA-APC (enzyme)
chain: ANSFLEELRHSSLERECIEEICDFEEAKEIFQNVDDTLAFWSKHVDGDQCLVLPLEHPCASLCCGHGTCIDGIGSFSCDCRSGWEGRFCQREVSFLNCSLDNGGCTHYCLEEVGWRRCSCAPGYKLGDDLLQCHPAVKFPCGRPWKRMEKKRSHLKRDTEDQEDQVDPRLIDGKMTRRGDSPWQVVLLDSAAALACGAVLIHPSWVLTAAHCMDESKKLLVRLGEYDLAAWEKWELDLDIKEVFVHPNYSKSTTDNDIALLHLAQPATLSQTIVPICLPDSGLAERELNQAGQETLVTGWGYHSSREKEAKRNRTFVLNFIKIPVVPHNECSEVMSNMVSENMLCAGILGDRQDACEGDSGGPMVASFHGTWFLVGLVSWGEGCGLLHNYGVYTKVSRYLDWIHGHIRDKEAPQKSWAP

cytoprotective activity (% wt-APC), staurosporine-induced apoptosis of Eahy926 cells [4]: < 1 % wt-APC | cytoprotective activity (% wt-APC), staurosporine-induced apoptosis of Eahy926 cells [5]: < 1 % wt-APC
B2: R306A/K311A/R312A/R314A-APC (enzyme)
chain: B1 chain with A191K, A192K, A193K, A229R, A230R, R306A, K311A, R312A, R314A

half-maximum inhibition of staurosporine-induced apoptosis (EA.hy926 cells, Apopercentage dye) [1]: 0.14 nM | half-maximum inhibition of staurosporine-induced apoptosis (Eahy926 cells, Apopercentage staining) [1]: 0.2 nM | reduction of activated caspase-3-positive endothelial cells after staurosporine [1]: ~70% | half-maximum inhibition of staurosporine-induced apoptosis (EA.hy926 cells, Apopercentage dye) [2]: 0.14 nM | half-maximum inhibition of staurosporine-induced apoptosis (Eahy926 cells, Apopercentage staining) [2]: 0.2 nM | reduction of activated caspase-3-positive endothelial cells after staurosporine [2]: ~70% | anticoagulant activity (% rwt-APC), APTT clotting assay in human plasma [6]: 4.6 % rwt-APC | cytoprotective activity (% rwt-APC), from the concentrations for half-maximal inhibition of apoptosis [7]: 114 % rwt-APC | cytoprotective activity (% rwt-APC), from the concentrations for half-maximal inhibition of apoptosis [8]: 114 % rwt-APC | cytoprotective activity (% wt-APC) [4]: 120 % wt-APC | cytoprotective activity (% wt-APC) [5]: 120 % wt-APC
B3: KKK191-193AAA-APC (enzyme)
chain: B1 chain with A229R, A230R
